Measurements reported in paper PMC4539990.

Target: purified FLAG-cortactin (rat) (UniProt Q66HL2)
Assay: pull-down

Chain of UniProt Q66HL2 (Q66HL2 whole entry): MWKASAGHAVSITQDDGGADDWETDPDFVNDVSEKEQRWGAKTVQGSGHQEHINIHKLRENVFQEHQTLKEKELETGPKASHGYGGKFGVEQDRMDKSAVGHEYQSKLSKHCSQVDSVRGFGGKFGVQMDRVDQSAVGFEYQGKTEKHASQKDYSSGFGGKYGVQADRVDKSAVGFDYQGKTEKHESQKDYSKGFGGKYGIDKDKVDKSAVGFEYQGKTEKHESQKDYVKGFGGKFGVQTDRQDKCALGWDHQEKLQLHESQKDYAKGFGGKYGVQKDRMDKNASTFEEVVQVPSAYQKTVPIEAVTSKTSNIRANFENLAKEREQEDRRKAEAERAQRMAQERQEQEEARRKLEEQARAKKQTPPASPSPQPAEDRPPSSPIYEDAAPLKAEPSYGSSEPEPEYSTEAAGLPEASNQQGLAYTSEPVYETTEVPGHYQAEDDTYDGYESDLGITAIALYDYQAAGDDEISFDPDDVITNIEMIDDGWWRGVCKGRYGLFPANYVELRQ

Kd: 25 nM
Substance: purified shootin1 wild type (natural protein)
